Test results from publication PMC8364239 (The Plant Cell, 2021).
Where a chain is given by its changes, count along the chain named. Numbers in names are those of the source.

Tests used:
[1] = molecular target: T1, His6-tagged SEC15B (Arabidopsis thaliana, UniProt F4JHH5 1-787); assay: pull-down
T1 sequence: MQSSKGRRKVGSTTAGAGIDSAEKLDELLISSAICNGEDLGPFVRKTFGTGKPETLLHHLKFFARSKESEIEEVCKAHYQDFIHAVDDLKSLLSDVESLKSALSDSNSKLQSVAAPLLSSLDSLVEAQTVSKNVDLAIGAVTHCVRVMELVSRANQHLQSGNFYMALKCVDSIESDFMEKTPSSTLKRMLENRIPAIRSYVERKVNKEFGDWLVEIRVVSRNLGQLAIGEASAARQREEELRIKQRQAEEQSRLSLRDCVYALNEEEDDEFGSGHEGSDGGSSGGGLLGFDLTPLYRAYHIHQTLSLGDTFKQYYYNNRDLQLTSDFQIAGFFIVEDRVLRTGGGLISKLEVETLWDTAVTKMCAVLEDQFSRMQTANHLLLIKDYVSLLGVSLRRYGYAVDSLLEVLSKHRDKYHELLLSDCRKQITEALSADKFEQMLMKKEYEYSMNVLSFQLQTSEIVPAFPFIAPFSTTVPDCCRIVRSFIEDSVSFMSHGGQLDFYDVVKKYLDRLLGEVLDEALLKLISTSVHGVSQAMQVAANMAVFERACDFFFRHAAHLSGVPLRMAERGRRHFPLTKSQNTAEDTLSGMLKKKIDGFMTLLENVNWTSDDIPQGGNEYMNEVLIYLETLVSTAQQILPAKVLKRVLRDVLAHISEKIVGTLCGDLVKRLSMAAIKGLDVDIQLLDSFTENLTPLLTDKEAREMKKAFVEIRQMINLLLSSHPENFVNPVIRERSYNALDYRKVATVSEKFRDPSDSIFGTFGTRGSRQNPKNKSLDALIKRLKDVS

[2] = molecular target: T2, His6-tagged SEC5B (Arabidopsis thaliana, UniProt F4HWE6 1-1090); assay: pull-down
T2 sequence: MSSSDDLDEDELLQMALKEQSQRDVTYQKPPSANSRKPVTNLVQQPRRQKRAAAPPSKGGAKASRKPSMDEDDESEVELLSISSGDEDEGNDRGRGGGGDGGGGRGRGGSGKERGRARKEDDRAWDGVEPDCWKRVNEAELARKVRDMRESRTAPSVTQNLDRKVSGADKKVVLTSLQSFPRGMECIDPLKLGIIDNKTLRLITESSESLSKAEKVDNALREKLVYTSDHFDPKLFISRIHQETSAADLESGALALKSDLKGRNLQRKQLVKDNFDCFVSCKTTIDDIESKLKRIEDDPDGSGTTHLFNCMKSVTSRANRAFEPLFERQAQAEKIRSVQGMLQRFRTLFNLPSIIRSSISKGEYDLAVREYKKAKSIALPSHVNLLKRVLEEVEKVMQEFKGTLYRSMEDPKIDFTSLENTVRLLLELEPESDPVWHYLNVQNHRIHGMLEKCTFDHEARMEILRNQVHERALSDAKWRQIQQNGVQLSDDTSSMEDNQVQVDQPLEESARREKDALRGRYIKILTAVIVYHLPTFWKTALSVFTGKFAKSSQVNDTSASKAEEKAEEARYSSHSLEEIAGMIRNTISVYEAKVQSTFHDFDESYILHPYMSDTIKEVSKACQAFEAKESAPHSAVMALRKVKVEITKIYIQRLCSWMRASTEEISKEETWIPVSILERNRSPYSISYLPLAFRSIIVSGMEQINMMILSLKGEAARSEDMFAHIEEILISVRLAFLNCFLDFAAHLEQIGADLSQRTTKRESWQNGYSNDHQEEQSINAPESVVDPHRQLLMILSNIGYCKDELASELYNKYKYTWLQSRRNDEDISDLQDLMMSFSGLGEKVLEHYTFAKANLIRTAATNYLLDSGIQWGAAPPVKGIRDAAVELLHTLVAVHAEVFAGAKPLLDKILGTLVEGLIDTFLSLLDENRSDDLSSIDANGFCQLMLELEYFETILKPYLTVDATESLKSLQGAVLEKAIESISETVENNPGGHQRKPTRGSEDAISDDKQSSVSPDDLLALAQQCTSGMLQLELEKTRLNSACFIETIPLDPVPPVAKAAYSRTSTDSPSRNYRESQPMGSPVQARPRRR

B1: GST-tagged myosin XIK GTD (wild type) (domain or fragment)
chain: ISPTSRTMATRSKTMLLPRTPENGNYLNGGTKTTPDMTLAVREPESEEKPQKHLNEKQQENQDLLVKCISQNLGYNGDKPVAACVIYKCLLHWRSFEVERTSVFDRIIQTIATAIEVPDNNEVLAYWLSNSATLLLLLQRTLKATGAASLTPQRRRTTSASLFGRMSQGLRGSPQSAGLSFLNRQGLTKLDDLRQVEAKYPALLFKQQLTAFLEKIYGMIRDNLKKEISPLLGLCIQAPRTSRASLVKGRAQANAVAQQALIAHWQSIRKSLNSYLNLMKANNAPPFLVRKVFTQIFSFINVQLFNSLLLRRECCSFSNGEYVKAGLAELEQWCIEATDEYAGSAWDELRHIRQAVGFLVIHQKPKKTLDEITRELCPVLSIQQLYRISTMYWDDKYGTHSVSSDVIANMRVMMTEDSNNAVSSSFLLDDDSSIPFTVEDISKSMQQVDVNDIEPPQLIRENSGFGFLLTRKEGSTS
binding result [1]: binds | binding result [2]: binds

B2: GST-XIK GTD K1103A (domain or fragment)
chain: B1 chain with K49A
binding result [2]: binds
